The results in this text go back to paper PMC13195613 (Blood Advances, 2026).

The experiment has as its target T1, recombinant activated factor VII (UniProt P08709 61-212; P08709 213-466).
T1 sequence (looked up) 1: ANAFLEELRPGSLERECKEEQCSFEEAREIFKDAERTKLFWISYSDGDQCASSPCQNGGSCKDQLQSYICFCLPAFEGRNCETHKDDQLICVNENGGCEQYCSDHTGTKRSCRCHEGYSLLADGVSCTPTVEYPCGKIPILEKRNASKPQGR
T1 sequence (looked up) 2: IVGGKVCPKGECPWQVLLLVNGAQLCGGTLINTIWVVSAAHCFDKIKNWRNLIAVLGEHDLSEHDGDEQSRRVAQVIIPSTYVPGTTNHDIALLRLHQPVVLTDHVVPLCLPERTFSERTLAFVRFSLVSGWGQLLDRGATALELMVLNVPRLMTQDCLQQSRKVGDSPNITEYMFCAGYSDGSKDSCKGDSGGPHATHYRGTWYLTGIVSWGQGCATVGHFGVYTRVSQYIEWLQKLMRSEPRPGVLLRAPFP
Description: BLI. A general note: In BLI a coated tip is dipped into the sample, and binding shifts an interference pattern.

B1: endothelial cell protein C receptor (receptor)
chain: SQDASDGLQRLHMLQISYFRDPYHVWYQGNASLGGHLTHVLEGPDTNTTIIQLQPLQEPESWARTQSGLQSYLLQFHGLVRLVHQERTLAFPLTIRCFLGCELPPEGSRAHVFFEVAVNGSSFVSFRPERALWQADTQVTSGVVTFTLQQLNAYNRTRYELREFLEDTCVQYVQKHISAENTKGSQTSRSYTS
Take B1: the binding result is reported as “binds”.
